# According to PMC12525094:
# pKd: −log10 of the molar value.
# Assays:
# [1] = target: Class 1 phytoglobin from Beta vulgaris (BvPgb 1.2), cysteine-to-alanine variant C86A (Beta vulgaris (sugar beet)); test: other fluorescence titration; isothermal spectral shift (SpS), Monolith X, dual emission ratio 670/650 nm; NHS-dye-labelled Pgb mixed with a sixteen-step dilution of GAPDH (highest 32 µM), equilibrated 15 min, in capillaries; PBS pH 7.4 with 0.05% Tween20; 25 °C
# [2] = target: Class 1 phytoglobin from Beta vulgaris (BvPgb 1.2), recombinant wild type (Beta vulgaris (sugar beet)); test: as above
# [3] = system: BvPgb 1.2 rWT (class 1 phytoglobin) (Beta vulgaris); test: isothermal spectral shift (Monolith X); details: PBS pH 7.4, 0.05% Tween20, 25 °C, 15 min equilibration, 16-step DNA dilution, top DNA stock 673 nM (i.e. 2.5 ng pET19b/µL; the two figures are …)
# [4] = system: BvPgb 1.2 C86A (Beta vulgaris); test: isothermal spectral shift (Monolith X); details: PBS pH 7.4, 0.05% Tween20, 25 °C, 15 min equilibration, 16-step DNA dilution, top DNA stock 673 nM (i.e. 2.5 ng pET19b/µL; the two figures are …)
# [5] = closed (hexacoordinate) phase of biphasic fit
# [6] = open (pentacoordinate) phase of biphasic fit
pKd [1],pKd [2],Substance,"pKd [3, 5]","pKd [3, 6]","pKd [4, 5]","pKd [4, 6]"
6.92,6.59,"Glyceraldehyde-3-phosphate dehydrogenase (GAPDH), human (from UniProt P04406 1-335) (enzyme)",–,–,–,–
–,–,pET19b plasmid DNA,10.00,6.92,9.64,7.30
